For assay [1], the target named is S. cerevisiae Cenp-A nucleosome wrapped with the 147 bp Widom 601 sequence (S. cerevisiae) (UniProt P36012). The experiment in a line: AUC.
The target of assay [2] is 14 subunit-CCAN complex (constitutive centromere associated network), S. cerevisiae (S. cerevisiae) (UniProt P35201). The experiment in a line: AUC.
Assay [3] shares this target. The experiment in a line: SEC-MALS. Background: Size exclusion chromatography separates by hydrodynamic size, large species first.
Assay [4] shares this target. The experiment in a line: cryo-EM structure.
In assay [5] the target is S. cerevisiae Cenp-A nucleosome wrapped with the 147 bp Widom 601 sequence (S. cerevisiae) (UniProt P36012). The experiment in a line: SEC-MALS + AUC.

Consider “14 subunit-CCAN complex (constitutive centromere associated network), S. cerevisiae (from UniProt P35201;Q12262;Q12748;P47167;P43618;Q2V2P8;P38265;P38907;Q06675;Q02732;P53298;P38313;Q12493;Q06162)”, for which the stoichiometry N (CCAN per Cenp-A^Nuc) in assay [1] was found to be 1; in assay [5], 2. Moreover, the stoichiometry N in assay [2], in assay [3] and in assay [4] was 2 throughout.

Source of the values: paper PMC6859074.
